Measurements as given in paper PMC3941056 (The Journal of Cell Biology, 2014).

Molecular target: the molecule itself
Experiment: fluorescence correlation spectroscopy

B1: HsSAS-6–[F131E] with a C-terminal GFP (natural protein, human, UniProt Q6UVJ0 1-657, looked up)
chain: MSQVLFHQLVPLQVKCKDCEERRVSIRMSIELQSVSNPVHRKDLVIRLTDDTDPFFLYNLVISEEDFQSLKFQQGLLVDFLAFPQKFIDLLQQCTQEHAKEIPRFLLQLVSPAAILDNSPAFLNVVETNPEKHLTHLSLKLLPGNDVEIKKFLAGCLKCSKEEKLSLMQSLDDATKQLDFTRKTLAEKKQELDKLRNEWASHTAALTNKHSQELTNEKEKALQAQVQYQQQHEQQKKDLEILHQQNIHQLQNRLSELEAANKDLTERKYKGDSTIRELKAKLSGVEEELQRTKQEVLSLRRENSTLDVECHEKEKHVNQLQTKVAVLEQEIKDKDQLVLRTKEAFDTIQEQKVVLEENGEKNQVQLGKLEATIKSLSAELLKANEIIKKLQGDLKTLMGKLKLKNTVTIQQEKLLAEKEEKLQKEQKELQDVGQSLRIKEQEVCKLQEQLEATVKKLEESKQLLKNNEKLITWLNKELNENQLVRKQDVLGPSTTPPAHSSSNTIRSGISPNLNVVDGRLTYPTCGIGYPVSSAFAFQNTFPHSISAKNTSHPGSGTKVQFNLQFTKPNASLGDVQSGATISMPCSTDKENGENVGLESKYLKKREDSIPLRGLSQNLFSNSDHQRDGTLGALHTSSKPTALPSASSAYFPGQLPNS
brightness relative to monomeric GFP: ~1.6 fold
stoichiometry N: 2
